This is an account of results in paper PMC4031500.

For orientation: stoichiometry N means a count of units in the complex or per binding partner.

The target in the test is chB6 (Bu-1), chicken B-lymphocyte allotypic marker (chicken (endogenous in DT40)). Kind of test: non-reducing against reducing SDS-PAGE with Western blot; chB6 immunoprecipitated from DT40 lysate, SDS-PAGE without reducing agent, blot with anti-chB6 peptide antibody; compared with membrane fractions run with 2-mercaptoethanol.

Take “chB6 (Bu-1), chicken B-lymphocyte allotypic marker (natural protein)”: the stoichiometry N was 2.
